From publication PMC8218332 (Cell, 2021)

Molecular target: His-tagged SARS-CoV-2 RBD (Victoria RBD) (SARS-CoV-2, Victoria/Wuhan-Hu-1 (same …, UniProt P0DTC2))
Assay: BLI
Conditions: both partners purified

B1: mAb 88 (antibody, V domains shown)
VH: QLQLQESGPGLVKPSQTLSLTCTVSGGSISSGSYNWTWIRQPAGKGLEWIGRIYNSGSTNYNPSLKSRVTISVDTSKNQLSLKVRSVTAADTAVYYCARHCSGGTCYPKYYYGMDVWGQGTTVTVSS
VL: QSALTQPPSVSEAPRQRVTISCSGSSSNIGNNAVNWYQQFPGKAPKLLIYYDDLLPSGVSDRFSGSKSGTSASLAISGVQSEDEADYYCAAWDDSLNVVVFGGGTKLTVL
notes: copies: 2 + 2
In the case of B1, the Kd is reported as 4.4 nM.

B2: mAb 278 (antibody, V domains shown)
VH: QVQLVQSGAEVKKPGASVKVSCKASGYIFIRYGISWVRQAPGQGLEWMGWISANNGYTNYAQKLQGRVTMTTDTSTSTAYMELRSLRSDDTAVYYCARDGGILTGYLDYFDHWGQGTLVTVSS
VL: DIQMTQSPSSLSASVGDRLTITCRASQSIASYLNWYQQKPGKAPKLLIYAASSLQSGVPSRFSGSGSGTDFTLTISSLQPEDFATYHCQQSYSTLGITFGPGTKVDIK
notes: copies: 2 + 2
B2 was tested, and the Kd was 1.6 nM.

B3: mAb 316 (antibody, V domains shown)
VH: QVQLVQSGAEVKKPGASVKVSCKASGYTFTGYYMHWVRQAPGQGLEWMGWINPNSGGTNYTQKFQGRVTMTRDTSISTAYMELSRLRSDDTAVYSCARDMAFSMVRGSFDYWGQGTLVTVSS
VL: QAVLTQPPSASGSPGQSVTISCTGTSSDVGGYNYVSWYQQHPGKAPKLMIYEVSKRPSGVPDRFSGSKSGNTASLTVSGLQAEDEADYYCSSYAGSNHWVFGGGTKLTVL
notes: copies: 2 + 2
In the case of B3, the Kd is reported as 0.38 nM.

B4: mAb 384 (antibody, V domains shown)
VH: EVQLVESGGGLVKPGESLRLSCAASGFTFSDYYMTWIRQAPGKGLEWVSYIRSSGHTIYYADSVKGRFTISRDNAKNSLYLQMNSLRVEDTAVYYCARGGVLRFLEWPLNAFDIWGQGTMVTVSS
VL: DIQLTQSPSSLSASVGDRVTITCRASQGISNYLAWYQQKPGKVPKLLIYAASTLQSGVPSRFSGSGSGTDFTLTISSLQPEDVATYYCQKYNNALGTFGQGTKVEIK
notes: copies: 2 + 2
B4 showed a Kd of 0.65 nM.

B5: REGN10987 (antibody, V domains shown)
VH: QVQLVESGGGVVQPGRSLRLSCAASGFTFSNYAMYWVRQAPGKGLEWVAVISYDGSNKYYADSVKGRFTISRDNSKNTLYLQMNSLRTEDTAVYYCASGSDYGDYLLVYWGQGTLVTVSS
VL: QSALTQPASVSGSPGQSITISCTGTSSDVGGYNYVSWYQQHPGKAPKLMIYDVSKRPSGVSNRFSGSKSGNTASLTISGLQSEDEADYYCNSLTSISTWVFGGGTKLTVL
notes: source: provided by AstraZeneca; copies: 2 + 2
B5 was tested, and the Kd was 0.38 nM.

B6: mAb 222 (antibody, V domains shown)
VH: EVQLVESGGGLIQPGGSLRLSCAASGLTVSSNYMSWVRQAPGKGLEWVSVIYSGGSTFYADSVKGRFTISRDNSKNTLYLQMNSLGAEDTAVYYCARGEGSPGNWFDPWGQGTLVTVSS
VL: DVVMTQSPGTLSLSPGERATLSCRASQSVPSSYLAWYQQKPGQAPRLLIYGASTRATGIPDRFSGSGSGTDFTLTISRLEPEDFAVYYCQHYDTSPRFGGGTKVDIK
notes: copies: 2 + 2
For B6, the Kd was 0.25 nM.
